Measured values taken from paper PMC7265321 (The Journal of Cell Biology, 2020).
Substitutions are numbered along the chain they refer to.

Assays:
MEL-26 [1] = molecular target: MEL-26 (UniProt Q94420); assay: Far-Western after SDS-PAGE; conditions: reference: unmodified wild type; sites S92
MEL-26 [2] = molecular target: MEL-26 (UniProt Q94420); assay: native dot blot of Katanin; conditions: reference: unmodified wild type; sites S92
[3] = molecular target: T1, Katanin with MEI-1 S92D (6xHis-MEI-1 S92D / Strep-MEI-2) (C. elegans, UniProt P34808 1-472; O44740 1-280, S92D); assay: overlay or dot blot
T1 sequence (looked up) 1: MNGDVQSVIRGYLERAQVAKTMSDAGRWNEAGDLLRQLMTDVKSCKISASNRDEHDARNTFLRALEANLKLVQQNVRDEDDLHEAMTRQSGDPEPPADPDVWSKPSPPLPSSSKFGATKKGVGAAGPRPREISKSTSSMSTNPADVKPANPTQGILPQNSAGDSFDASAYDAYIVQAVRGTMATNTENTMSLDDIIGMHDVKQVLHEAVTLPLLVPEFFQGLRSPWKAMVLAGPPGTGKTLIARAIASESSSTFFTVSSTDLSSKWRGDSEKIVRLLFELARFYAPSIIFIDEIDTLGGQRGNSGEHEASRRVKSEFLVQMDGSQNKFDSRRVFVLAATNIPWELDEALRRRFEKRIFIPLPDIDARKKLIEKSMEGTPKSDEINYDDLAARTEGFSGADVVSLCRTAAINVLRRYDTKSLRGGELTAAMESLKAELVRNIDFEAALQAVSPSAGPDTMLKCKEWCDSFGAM
T1 sequence (looked up) 2: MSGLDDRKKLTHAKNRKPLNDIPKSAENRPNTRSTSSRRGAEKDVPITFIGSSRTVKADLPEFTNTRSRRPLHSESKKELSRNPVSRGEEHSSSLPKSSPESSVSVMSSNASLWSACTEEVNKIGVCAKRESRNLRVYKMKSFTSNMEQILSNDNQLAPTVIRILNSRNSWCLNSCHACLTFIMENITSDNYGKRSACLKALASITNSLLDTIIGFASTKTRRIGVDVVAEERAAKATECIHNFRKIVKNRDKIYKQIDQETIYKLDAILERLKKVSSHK

MEI-1 S92-aaPho-6xHis = molecular target: T2, MEI-1 S92-aaPho-6xHis (C. elegans, UniProt P34808 1-472, phosphoserine at 92 (100% by mass spectrometry)); assay: far-Western
T2 sequence (looked up): T1 sequence (looked up) 1 with D92S

6xHis-MEI-1 S92D = molecular target: T3, 6xHis-MEI-1 S92D (C. elegans, UniProt P34808 1-472, S92D); assay: far-Western
T3 sequence (looked up): T1 sequence (looked up) 1

Molecule: MEI-1 (Katanin p60 catalytic subunit) (from UniProt P34808) S92-aaPho (phosphoserine by genetic code expansion)
- binding against the reference (MEL-26 [1]): stronger
- binding against the reference (MEL-26 [2]): stronger

B1: GST-MEL-26 (natural protein, C. elegans, UniProt Q94420 1-395, looked up)
chain: MEPRIDGGVFIGGIGNSGNEMCSNGVPALGVSSQTEIKVEKVQHTWTVKNFSHCYQEYLENFVYLQRGDEQLTWSIKIYPKGNGENNKDFVFLCLNRVINNNVKAGKIGFKSQFKLRTAENKDIEMRIHPNPSHSDYVSYIKRDVLFPQIMPRDMIIVNVEIDVAVETITTTNEPIQFEPTNSEQQLIEDYQRLFSQELLCDFAINVNGKIIRAHKAVLAARSPVFNAMLTHQDTDEAKSSMMYINDMDYDVIYEMVYYIYCGRCNKDITDMATALLIAADKYRLEELKSHCEKYLVENINIENACSLLIIGDLYSAPKLRKRAVTYILARPKNVTGTPGWEDILKGHPNLITDIFSQIDRQSSTGATSSVSNLPGVPMDIPGITGNIVPPPSGL
- binding result [3]: binds
- binding result (MEI-1 S92-aaPho-6xHis): binds
- binding result (6xHis-MEI-1 S92D): binds
